{
  "source": "the DeepSol protein solubility set",
  "data": [
    {"assay": "soluble on expression in E. coli; label from the status in PepcDB or PDB records", "values": [
      {"sequence": "MAHHHHHHMASADSKAVLLSSQPGATAYSSTVAVKVQAGRMILQDGIVRPLLGSGFLFLLREGLLQDTVLTWVSSDGEEQCRVTLPPGRVKVSWVEKCRPSRVLLFDIDNGKQPLFFWMQSRSDELDEPVMHRIQHAIERNRQQAVAQHGRREIKMGTLQNILSDLWSEALAHDVNLVDILGSEKLLKALQEDPGFYTLRLKDYLPLGELDSGVPLDLKKLMNDRQVQWTAEILGTLLRHETTYSQLSASFLNGTMLWGANVTSFIVSIINIFLPQNEQQQMGESDN", "soluble on expression in E. coli": "not soluble"},
      {"sequence": "MEIHTYEKEFFDLLKRISHYSEAVALMHWDSRTGAPKNGSEDRAESIGQLSTDIFNIQTSDRMKELIDVLYERFDDLSEDTKKAVELAKKEYEENKKIPEAEYKEYVILCSKAETAWEEAKGKSDFSLFSPYLEQLIEFNKRFITYWGYQEHPYDALLDLFEPGVTVKVLDQLFAELKEAIIPLVKQVTASGNKPDTSFITKAFPKEKQKELSLYFLQELGYDFDGGRLDETVHPFATTLNRGDVRVTTRYDEKDFRTAIFGTIHECGHAIYEQNIDEALSGTNLSDGASMGIHESQSLFYENFIGRNKHFWTPYYKKIQEASPVQFKDISLDDFVRAINESKPSFIRVEADELTYPLHIIIRYEIEKAIFSNEVSVEDLPSLWNQKYQDYLGITPQTDAEGILQDVHWAGGDFGYFPSYALGYMYAAQLKQKMLEDLPEFDALLERGEFHPIKQWLTEKVHIHGKRKKPLDIIKDATGEELNVRYLIDYLSNKYSNLYLL", "soluble on expression in E. coli": "soluble"},
      {"sequence": "MMLSRAKPAVGGESPHTDKRKKKGRKIPKLEDLLSQRDFTGAITLLEFKRHVGEQEDDTNLWIGYCAFHLGDYKRALEEYENATKEENCNPEVWVNLACTYFFLGMYKQAEAAGFKAPKSRLQNRLLFHLAHKFNDEKKLMNFHQNLQDIKEDQLSLASNSEIHLPLPPECWD", "soluble on expression in E. coli": "not soluble"},
      {"sequence": "RDTVVTLLLDNSGSMRGRPISIAAICADVLARTLERCNVKVEILGFTTRAWKGGLAREAWLNEGRPQQPGRLNDLRHIIYKAADAPMRRTRQNLGLMMKEGLLKENIDGEALEWAHRRMLGRREQRKILMVISDGAPVDDSTLSVNPANYLEKHLRDVIAMVERRKQVELLAIGIGHDVTRYYQRAVTITDVEQLAGAMTEQLAALFDSDPRARARVMGMKRAS", "soluble on expression in E. coli": "not soluble"},
      {"sequence": "MVVAFLIGAGGMFAGMSLFGVNPAEVTQTISSGNASTAQGNLAKINEAYALIDSRYVEDVKDEKLVEGAIQGMLSTLKDPYSTYMDKETAKQFSESLDPELEGIGAEVNKTDGKLIIVSPIKGSPAEKIGIKPNDQILSVDGNSVKDLSREEAVLKIRGKKGTTVAIEIKRAGVADPIVFKIKREKIPIFTVFSSVKQESGKDIGYMQITSFAENTAKEFKDQLKELEKKNIKGLVIDVRGNPGGYLNSVEEILGEIMTDKKPMLQVEQRNGEKKKFSTELKERKPYPISVLIDNGSASASEILAGALKEGEGYDLIGEKTFGKGTVQQAVPFKDGSNIKLTMFKWLTPDGNWIHKKGIKPTVEVKQPDYYHATPIQIEKTLSYNANDVQVKHAQEMLKSLGYVPGREDGYFSKETESALKAFQNANKMEATGQLDKKTAEAIQTKIIEKIRSGENDLQLQSALKLMAK", "soluble on expression in E. coli": "not soluble"},
      {"sequence": "MTTMTNSLISNSVSSVPESLFSSASIHRPVAINPAMLAQFSINLPVLPFESSASLGTSTTSSSRCSSTESSAAPGKIRRGRPQQEIADGQDAHSQKKRHRRLYARQYRAQMRQKVENVKSLHDEKEQLELEVKALRQAVSGLQQENAQKDFLISILQLNNQINHS", "soluble on expression in E. coli": "not soluble"},
      {"sequence": "MSLDLASKYFNDIDWRYVDHSSGLAPMQSFAFDDTFSESVGKDLSCNVVRTWIHQHTVILGIHDSRLPFLKDGIKYLTDEIGYNAIVRNSGGLGVVLDQGVLNISLIFKGQTETTIDEAFTVMYLLICKMFENEDVEIDTREIEHSYCPGKFDLSIDGKKFAGISQRRVRGGIAVQIYLCVEGSGSERAEMMRVFYEHALKGEVTKFKYPDIHPECMASLETLFEREIKVQDVMFQLLHAIKDLGGNLNMDPITEDEWTRYEGYFDKMIDRNEKMNRSIEADEGHHHHHH", "soluble on expression in E. coli": "soluble"},
      {"sequence": "MAHHHHHHMSLTDIEEAETVELLSEDSCSTMSASSEDVGATTVDTSLPLTANATEEQLRRRMLHECACIPELRPQPAWLEESGAAGDGPSASTTEMNWDVAHADHLVVAVRWRVAPTSPGTGCPSLHTTPWVPYAVPLAKVIASRTMAATDTASTVTSTTSSSGGGSSATVQPLGSVQLPLGRSMFLLAAQRSSLVPRAWDSGVAAESLVNVAASISRAQCTLHLHYAAAKTPQAPSSLRTRPVCRSFDVFAISPTTALLGIALQPHQRYHIKRKRGTGKSAHASEDQPCDANGVLTLRVGPYCHVDVALDELPSEPRVSGSAGTCPSITINTYNGRHAHTTRSGQTQDSPAVHRTSACRSGVAREPPAAAMQLQHGSTASLITGDSTAVLATLSEMSDHVALSETSGHEHDGPVVAGSQEVAAAPSHTSITGSLKRRRPAAARGRAAEAVVRRVGNAEAAEGGDVDEADAAVSHSVTTTPSEIVLFTTGMRLSDAEEKTLKELGALVNPHLRLARYARVLAAQRPLVRSVKLLTVLPYVQDVVHQSWLDAVLRTRSLDLPLEGFAYKERKLAGSIESENSFDLRETMRKAPTERQRLFAQQHFWVHKSATPQEPPMNDLKTVVAASGGIITRCVLDADVLVLPKHKPTLSCWRGIAQQLGGTGRASTSSASASTTPTLAQRKQAGVLFVVPDDIFKCVLQQRRLSASSVTLPWQLLTEAAAARGTTGAARVGRRPSQPTRKTPRASTTQRSPRRKSCKRSQ", "soluble on expression in E. coli": "soluble"},
      {"sequence": "KKNYALSFNANVGFNKNKVKSLGSLMDYSADSGWASTDIQSDFKVQPGHSVGEIYGFVSDGRYEVSDFEGFIDGKWVLKAGVADASDIIGEKYLRPGAMKLKNVDGSEDNKVTKDDQKVIGDTNPFCSGGFSVNARVYGFDLTANFTYSIGNDIYNANKIEYTSSSKYKYRNMIDVMAEEKRWTNLNADGTICNDPTQLAAMNANTSMWSPWTQKYVLTDWAVEDGSFLRLATLSIGYTLPQTLTRKVGIQNLRFYATGYNLFCITNYSGFDPEVSTRTKSALTPGVDYSAYPRSRQYVIGLNLTF", "soluble on expression in E. coli": "not soluble"},
      {"sequence": "MKIVIAPDSFKESLTAQQVAEAIKRGFQQSIADVECLLCPVGDGGEGTVDAIRHSLDLEEKCLQVTGSFGQKEVMRYFQKEQLALFEVADLVGLGKIPLEKRNPLQIQTRGIGELIRHLISQEIKEIYIGVGGTASNDGGIGIAAGLGYQFYDEDGNALPACGQSLLNLASVSTENRYKIPEDVHIRILADVVSPLCGHQGATYTFGKQKGLDSTMFEVVDQAIQDFYEKVSPATLKLKGAGAGGGIAGGLCAFAQASIVSGIDTCLDLIDFDKKVSDVDLVIVGEGRLDRQSLAGKAPIGVAKRTPVGVPVVAICGSLVEDLPSLPFENIQAAFSILEKSEPLEDSLKNASLYLEHTASNIGHLLNMPKI", "soluble on expression in E. coli": "soluble"},
      {"sequence": "MSSIEWNEKTFAKFAYLSDPRTKGELVAYVLTKANLKDNKYENTIVIENLKNNARRFIENATMPRISPDGKKIAFMRANEEKKVSEIWVADLETLSSKKILEAKNIRSLEWNEDSRKLLIVGFKRREDEDFIFEDDVPAWFDDLGFFDGEKTTFWIFDTESEEVIEEFEKPRFSSGIWHRDKIVVNVPHREIIPQYFKFWDIYIWEDGKEEKMFEKVSFYAVDSDGERILLYGKPEKKYMSEHNKLYIYDGKEVMGILDEVDRGVGQAKIKDGKVYFTLFEEGSVNLYIWDGEIKPIAKGRHWIMGFDVDEIVVYLKETATRLRELFTWDGEEKQLTDYNDPIFAKL", "soluble on expression in E. coli": "soluble"},
      {"sequence": "MSSSNWEKLKKKLDSAKSGRVEKKHSNEKKYLKSVKGKNNENENSYIVDKKRMNELKKFAKENDIPESQVLDAYGVDASKLTRKTNLETLGKYIAMDCEMVGVADDMSVLARVSIVNYHGHVVYDTYVRPKEKVTDWRTWVSGVKSFHMRDAPSFEKVQAEVAKILDNRVLVGHAVHNDLKVLLLSHPRRMIRDTSRFSGYRKLAKGRTPGLKKLAEVILGRDIQSGQHSSVQDAQATMELYKKVKKEMDEVAFKGLSKS", "soluble on expression in E. coli": "soluble"},
      {"sequence": "MGSDKIHHHHHHMKISCKNVGVILPIFNSSHRSFKKTFLQAASGGRIGSSNTGIIEVEALKKIDFTLTEGNRLALIGHNGSGKTTLLRVLAGAYKPTSGKYECIGRVTSLIDPMMGMDGELTGLENIKLRGLFLGLSKNEIKNITEDVIEFSELGDFIKIPVRTYSSGMVLRLGFSISTAINPEILLMDEWMSVGDSDFKRKAEMRLNSFISKAGIMVMATHDDELAKSVCNKFIRLEHGEIVSKGGF", "soluble on expression in E. coli": "not soluble"},
      {"sequence": "MSEISAIWERIEAWHAANDQTENLNPGATAEALAQAEKDMGLTFPPEMRESLLRHDGSVDDSWPTGELLSLERMADERKVWMDLLQDGTFDGNASHNESSEALQPGWWNPAWIPLDADGGGNGAVIDLAPGPQGTVGQVIDMDHEVGPSGPKYVSLAAYLEAMLERLSEAEE", "soluble on expression in E. coli": "soluble"},
      {"sequence": "MAHHHHHHMFQNIQTIILDVNDGEMRAGYSGECSPRYNSNLILGLPVGHGATLKHTIFPLLPEIKRDNVELIYGMKYIYDDNNSSKYEINFDVMEKLLEDISGSKALDDNFQDHPILLTEPNKTDRKYREKFTEMMFETYNVYQLFLSRRSVLSCYGCARTSGLVLDVERNCTNLCGIQEGYIFQKHIEEVPIGGDLIDRIYLAYLENVKNIKIYPYFTIEKGQSAEKETDEIRILKCPLVTKPYYLWGSLHVASHLKENLGNECHPLGDKMKKNENKNESNTSYKLPDGSIIDQTTCESLKLIFPYIFFKKKYNQNSVTKLAGITTLQNMDFNSFYDSLKTLKLPVLYKHNYRINASSSVLERVPDNPADKNSNICNSDQIDTYFEIFDGLQDFIKKGILSFISANMTLDEVLNFLIVTGESTMFHNFIGILKSYLPFIDTIKEKSTQLIYSKGADRKCNCFIGASILSSLGTFPQFCMTKSEYEEYGVKNIVDKKCV", "soluble on expression in E. coli": "not soluble"},
      {"sequence": "MSLATKFQESEQQGRKREFMNQRNAFFILELELTQEETDAFLPLYNELDTKRYELWKDVRQKRALMERKAELTDADMELIINKSLDNKIAEARLEKEYYYKFKRVLPMRKVMALKVAERKFARLFLKSSYDEGHHHHHH", "soluble on expression in E. coli": "soluble"},
      {"sequence": "TAKQRDDAIENAEAAKVESEQVAKKATEGELHLAEVLEQANLNSIELKSVSQALDEQSSQLDEQVNALNVNSESQASAAEQMSQQVHHMATGIEESSKFVEELREKSEDVHQQAEKSSELLEDSTQAIGQIITSHEEIMKVADLITSVAEANQLAGFKCGNRSGASRRSGQRFCCGCRASTRAICEE", "soluble on expression in E. coli": "not soluble"},
      {"sequence": "MNGNQARNDIDEWLKTAACIKHPAGCVDQDGHSAFSDREGNLFQLAVPDAFSSLHLYGTLLELQPAVDGRVLASALAINAQKNVLRGSVIALNTENQELFVHHTVTLESLDRVALWQTLDNFVALTRELRSALRSQPVPAAKIESTHFNHLRRGF", "soluble on expression in E. coli": "not soluble"},
      {"sequence": "MGSDKIHHHHHHMPLLPQPAGSVTTGRYTFAAAQVHAQTLTVCIVCNNTLYPAGSAVMSRVNVSLLQSGMILSEDVTDSNGRKLLCAGDAITEKHLRILKIWGVAEVDVEGIEPADAARSALDGLDPLRVEAAAARATARFALNDLQYEPVCMLMQCSVAALAKGADPVAPLPDYSVLPAAPMPSAPPALADMLRDDTRLGSLPPVFHRLVDVVNDPRSSATDMAEVIANDTDLSARLLRLVNSTFYGLRAKVDTITRAVTIIGSNQLVSLAMGAVMTTFFKGLPNSIVDMRSFWEHSVACGVAARLLASLHRMPNTERFFVAGLLHDIGRLAVYRLLPEHSLYMLTESRRRGISMRAMEREVLGFSHDRLGGRLLKEWRCPVSLERNVALHHTPGSGHGGLESAIINVADILAHTLEFGTSGEVLVPRLEQAVWDALALPAGTLEQAAAQMDYQVHEIIRFFELDE", "soluble on expression in E. coli": "not soluble"}
    ]}
  ]
}
